Laboratory results: US20210253725A1 (BIONTECH, published 2021)

T1: CD27 expressed on the cell surface (HT1080_CD27 cells) (human, UniProt P26842 20-260)
T1 sequence (looked up): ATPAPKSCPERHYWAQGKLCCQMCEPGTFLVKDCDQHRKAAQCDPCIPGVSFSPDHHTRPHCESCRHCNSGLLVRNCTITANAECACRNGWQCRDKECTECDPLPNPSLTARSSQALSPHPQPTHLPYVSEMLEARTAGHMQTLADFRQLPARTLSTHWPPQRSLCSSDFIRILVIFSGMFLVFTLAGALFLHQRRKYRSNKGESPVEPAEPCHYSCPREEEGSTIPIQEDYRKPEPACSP

T2: CD27 protein (His-tagged, Sino Biological Inc. 10039-H08B1) (human, UniProt P26842 20-192)
T2 construct: bought; coated onto ELISA plates; also called human CD27; recombinant protein; not shown: His tag
T2 sequence (looked up): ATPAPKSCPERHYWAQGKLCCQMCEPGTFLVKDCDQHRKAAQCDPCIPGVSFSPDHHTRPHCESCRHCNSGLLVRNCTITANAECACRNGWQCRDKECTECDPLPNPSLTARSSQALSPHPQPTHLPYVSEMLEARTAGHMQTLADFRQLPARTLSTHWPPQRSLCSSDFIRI


Legend:
[1] = molecular target: T1, CD27 expressed on the cell surface …; test: cell-based or functional assay
[2] = molecular target: T1, CD27 expressed on the cell surface …; test: cellular binding assay, HT1080_CD27 cells
[3] = molecular target: T2, CD27 protein (His-tagged, Sino …); test: ELISA on coated His-tagged CD27
Further: test concentration or dose not given here.

Row | Binder | IL-8, cross-linked by F(ab')2 fragment [abs. corr.] [1] [abs. corr.] | IL-8 [abs. corr.] [1] [abs. corr.] | Cellular binding assay [RFU] [2] [RFU] | ELISA [abs. corr.] [3] [abs. corr.]
1 | P018.S.06.A.F06 (antibody, V domains shown, V regions on human Ig constant parts; also called AB27_110) VH: QSVEESGGRLVTPGTPLTLTCAASGFSLNSYVMSWVRQAPGKGLEWIGYIDYGGAPYYASWAKGRFTISKTSTTVELKITSPTIEDTGTYFCARGGYGGYVLVTALWGPGTLVTVSS VL: DIVMTQTPASVSEPVGGTVTIKCQASENIYSYLAWYQQKPGQPPKLLIYQASTLASGVSSRFKGSGSGTQFTLTISDLESADAATYYCQTYYGGSTYGNGFGGGTEVVVE | 1.03 | 0.7 | 326 | 3.17
2 | P018.S.09.A.A03 (antibody, V domains shown, V regions on human Ig constant parts; also called AB27_144) VH: QEQLVESGGGLVQPEGSLTLTCTASGFSFSSSYYMCWVRQAPGKGPEWIACIYTYSGDTDYANWAKGRFTISKTSSTTVTLQMTSLTAADTATYFCAKAGYGGYGYPIFNLWGPGTLVTVSS VL: AFELTQTPSSVEAAVGGTVTIKCQASQSIGSSLAWYQQKPGQRPKLLMYYVSTLASGVSSRFKGSGSGTEFTLTISDLESADAATYYCQSYYGSGTTVFWAFGGGTEVVVK | 1.54 | 0.263 | 360 | 3.16
3 | P018.S.06.A.E04 (antibody, V domains shown, V regions on human Ig constant parts; also called AB27_106) VH: QEQLEESGGDLVQPEGSLTLTCTVSGFSFDSNYWICWVRQAPGKGPEWIACIMTGDGSIYYATWAKGRFTISKTSSTTVTLQMTSLTAADTATYFCARGYDGIHGGDNYGHVFNLWGPGTLVTVSS VL: AFELTQTPFSVSAVVGGTVTINCQASENIYTLLAWYQQKSGQPPKLLIYRASTLTSGVPSRFKGSGSGTQFTLTISDLESADAATYYCQGYYVDSGNTFGGGTEVVVK | 1.22 | 0.327 | 281 | 3.16
4 | P018.S.04.A.E02 (antibody, V domains shown, V regions on human Ig constant parts; also called AB27_74) VH: QSVEESGGRLVTPGTPLTLTCTVSGFSLNNYDMNWVRQAPGKGLEWVGYIDTGGSAYYASWVNGRFTISKTSTTVELKMTSLTASDTATYFCARGYTHGYLWGQGTLVTVSS VL: ALVMTQTPSSVSAAVGGTVTINCQASQNVYNNLAWYQQKPGQPPKLLIDSASTLASGVSSRFKGSGSGTEFTLTISDLESADAATYYCQSADWESSNFFWAFGGGTEVVVK | 1.91 | 0.676 | 463 | 3.52
5 | P018.S.08.A.A01 (antibody, V domains shown, V regions on human Ig constant parts; also called AB27_135) VH: QSVEESGGRLVTPGTPLTLTCTVSGFSLNNYDMNWVRQAPGKGLEWVGYIDTGGSAYYANWVNGRFTISKTSTTVELKMTSLTASDTATYFCARGYIHGYLWGQGTLVTVSS VL: ALVMTQTPSSVSAAVGGTVTINCQASQNVYNNLAWYQQRPGQPPELLIDSASTLASGVSSRFKGSGSGTEFTLTISDLESADAATYYCQSADWESSNFFWAFGGGTEVVVK | 1.57 | 0.876 | 448 | 3.42
6 | P018.S.06.A.F03 (antibody, V domains shown, V regions on human Ig constant parts; also called AB27_108) VH: QSLEESGGDLVRPGASLTLTCTASGLSFSDRYWISWVRQAPGKGLEWIASIYTGSDGVADYATWAKGRVTISKTSSTTVTLQMTSLTAADTATYFCARDREYGSNTGVYSLWGPGTLVTVSS VL: DVLMTQTPSSVSPAVGGTVTIKCQASQNIYSNLAWYQQKPGQRPKLLVYDASNLEYGVPSRFKGSGSGTEYTLTISDLESADAANYYCQCTYYGNNYITFGGGTEVVVR | 1.08 | 0.063 | 304 | 3.16
7 | P018.S.10.A.E04 (antibody, V domains shown, V regions on human Ig constant parts; also called AB27_177) VH: QSLEESGGDLVKPGASLTLTCTASGFSFSSSYWICWVRQAPGKGLEWVACISAPGSGSTFDASWAKGRFTISKTSSTTVTLQMTSLTAADTATYFCARFYAGGSGDYFDLWGPGTLVTVSS VL: QIVMTQTPSSTSEPVGGTVSIKCQASQNIGSYLAWYQQKPGQPPKVLIYTTSDLASGVPSRFKGSGSGTQFTLTISDLESDDAATYYCLGVYGYSSDDVAFGGGTEVVVK | 2.29 | 0.339 | 280 | 3.15
8 | P018.S.03.A.H02 (antibody, V domains shown, V regions on human Ig constant parts; also called AB27_60) VH: QSLEESGGRLMTPGGSLTLTCTVSGFSLSDYNMQWVRQAPGEGLEWIGIISLGGTTDYANWVKGRFTISKTSTTVDLKMTSLTASDTATYFCARDPAGGNWAELDLWGQGTLVTVSS VL: DIVMTQTPASVSEPVGGTVTIKCQASQSISSWLSWFQQKPGQPPKLLIYDASTLASGVPSRFKGSGSGTEFTLTISDLESADAATYYCQQGSTISNVDNAFGGGTEVVVK | 1.07 | 0.13 | 395 | 3.15
9 | P018.S.03.A.H03 (antibody, V domains shown, V regions on human Ig constant parts; also called AB27_61) VH: QSLEESGGDLVKPEGSLTLTCTASGLDFSSSYWICWVRQAPGKGLEWIACIHAGSSGTTHYATWAKGRFTISKTSSTTVTLQMTSLTAADTATYFCARGAVYGGGSYDNFNLWGPGTLVTVSS VL: AYDMTQTPASVEVAVGGTVTIKCQASQSIGTYLSWYQQKPGQPPKLLIYAASTLASGVQPRFKGSGSGTQFTLTISGVQSDDAATYYCQQGYSADNVANSFGGGTEVVVK | 1.09 | 0.588 | 289 | 3.15
10 | P018.S.03.A.F03 (antibody, V domains shown, V regions on human Ig constant parts; also called AB27_54) VH: QSLEESGGRLVTPGGSLTLTCTVSGIDLSSYAMGWVRQAPGKGLEYLGIIYTSNRTHYATWAKGRFTISKTSSTTVDLKATSLTTEDTATYFCGRYGRGSGGYYYGMDLWGPGTLVTVSS VL: DIVMTQTPASVEAAVGGTVTIKCQASQSGDDYCSWYQQKPGQRPKLLIYAASTLASGVPSRFRGSRSGTEYTLTISDLESADAATYYCQNYCAGSGVCLGVAFGGGTEVVVK | 1.35 | 0.106 | 223 | 3.15
11 | P018.S.01.A.A05 (antibody, V domains shown, V regions on human Ig constant parts; also called AB27_2) VH: QEQLEESGGDRVQPEGSLTLTCTASGFSFSATYWICWVRQAPGKGLEWIACIFGRSSSDTYYASWAKGRFTISKTSSTTVTLQMTSLTAADTATYFCARGDSGHPYYYSFNLWGPGTLVTVSS VL: AYDMTQTPASVEVAVGGTVTIKCQASQSIGGYLAWYQQKPGQPPKLLIYGASTLASGVPSRFRGSGSGTEFTLTISDLDSADAATYYCQCTHGTRSDWAFGGGTEVVVK | 1.09 | 0.328 | 300 | 3.15
12 | P018.S.06.A.C03 (antibody, V domains shown, V regions on human Ig constant parts; also called AB27_101) VH: QSLEESGGGLFQPGGSLTLTCKASGLDFSTNYYMCWVRQAPGKGLELIACISTSSGNTWYASWAKGRFTISKTSSTTVTLQMTSLTAADTATYFCARCDIVYVGYGYASRLDLWGQGTLVTVSS VL: AQVLTQTPSPVSAAVGGTVTINCQASESVYNNNNLAWYQQKPGQPPKFLIYGASSLASGVPSRFKGSGSGTQFTLTISDLESDDAATYYCAGGGSTSVGAFGGGTEVVVK | 1.13 | 0.272 | 269 | 3.14
13 | P018.S.10.A.C05 (antibody, V domains shown, V regions on human Ig constant parts; also called AB27_173) VH: QSVEETGGRLVTPGTPLTLTCAASGVSLSGYYAMSWVRQAPGKGLEWIGYLDATGSTYYASWVKGRFIISRPSTTVDLQITSPTIEDTATYFCARGSYDGVGYNWGLWGQGTLVTVSS VL: DIVMTQTPASVSEPVGGTVTIKCQASESIYNGLAWYQQKPGQPPKRLIYGASTLTSGVPSRFKGSGSGTEFTLTISDLESDDAATYYCQSNYGSGSRSNYIFGGGTEVVVK | 2.1 | 0.206 | 11 | 3.14
14 | P018.S.01.A.D05 (antibody, V domains shown, V regions on human Ig constant parts; also called AB27_13) VH: QSLEESGGRLVTPGTPLTLTCTASGFSLSSYYMSWVRQAPGKGLEYIGGIYTGGSAYYASWARGRFTISRTSTTVDLKMTSLTIEDTATYFCARDAGDRIYTTFNLWGPGTLVTVSS VL: ALVMTQTPASVSEPVGGTVSLKCQASQSIGSDLSWYQQKSGQPPKLLIYRASKLASGVPSRFKGSGSGTEFTLTISGVQSDDAATYYCLGIDSYSSDDGIAFGGGTEVVVK | 1.1 | 0.089 | 273 | 3.14
15 | P018.S.03.A.B05 (antibody, V domains shown, V regions on human Ig constant parts; also called AB27_43) VH: QEQLEESGGDLVKPEGSLTLTCTASGFDLSSRYWICWVRQAPGKGLEWIGCIKTGFSNTWYASWATGRFTFSKASSTTVTLQMTSLTVADTATYFCARIAAAASASDDFRLWGPGTLVTVSS VL: AQVLTQTPSSVSAAVGGTVTISCQSSKSVYNKWLSWFQQKPGQPPKLLIYDASDLASGVPSRFKGSGSGTEFTLTISDVQSDDAATYFCLGHYDSSSDRFVFGGGTEVVVK | 1.21 | 0.325 | 206 | 3.14
16 | P018.S.10.A.A04 (antibody, V domains shown, V regions on human Ig constant parts; also called AB27_164) VH: QSVEESGGRLVTPGTPLTLTCTVSGIDLSSNVMTWVRQAPGKGLEWIGYIYASATTYYATWAKGRFTISKTSTTVDLKMTSPTTEDTATYFCARERLASRGDYSDLWGQGTLVTVSS VL: AYDMTQTPASVEAAVGGTVTIKCQASESIGDLLAWYQQKPGQPPKLLIYDASDLASGVPSRFKGSGSGTEFTLTISGVESADAATYYCQQGYTTTSNVDNIFGGGTEVVVK | 2.16 | 1.78 | 175 | 3.13
